This note sets out measurements from patent US12385058B2, “Herbicide tolerance protein, encoding gene thereof and use thereof” (Beijing Dabeinong Biotechnology Co., Ltd., priority 2018, dated 2025).

B1: ALT02M1-01: nucleotide sequence SEQ ID NO: 25 encoding ALT02M1, based on soybean codon usage bias (nucleic acid)
DNA: ATGGAGACTGATAACGTGGAACTCGCCCAATCTAAGAGAAAGGTGGTGCTGGCTGAACAAGGGTCATTTTACATAGGGGGTAGGACTGTTACTGGTCCTGGCAAGTTTGATCCATCCAAACCTGTGATACCCTACAGTAACGAAGGAGCAACATTCTATATTAACCAAATGTATGTTAACTTCCAGGCCCCAGTGAGACCTAGGGGACTTCCATTGGTTTTCTGGCATGGAGGTGGCTTGACTGGTCACATCTGGGAGTCTACACCTGACGGCAGACCCGGGTTTCAAACCCTCTTCGTTCAGGATAGGCATACCGTGTACACTATTGACCAACCTGGGAGAGGAAGGGGTAACATCCCAACTTTTAACGGACCTTTCGGACAGTTGGAGGAAGAGAGTATTGTTAACACTGTGACAGCCAATTCTTCAAAGGAAGGTGCCTGGGTGAGAGATAGGCTTGGCCCTGCTCCCGGGCAATTTTTCGAGAACTCTCAGTTTCCTAGAGGCTATGAAGACAATTACTTTAAGGAGATGGGATTCAGCCCATCTATATCCAGTGATGAAATTGTTGACGCTGTTGTGAAACTCGTGACCCATATTGGTCCTTGTGTTCTGGTGACTCACTCAGCATCCGGCGTTCTTGGGATGAGAGTGGCTACACACGCAAAGAATGTTAGGGGAATTGTGGCCTATGAACCAGCTACCTCAATCTTCCCCAAGGGAAAAGTTCCAGAGATACCACCTCTCGCTGATAAGAAAAGCCAAATCTTTCCCCCATTCGAAATACAGGAGTCTTACTTTAAGAAACTTGCCAAGATTCCAATCCAATTTGTTTTCGGAGATAACATCCCCAAGAATCCAAAATCAGCATATTGGTTCCTGGACTGGTGGAGAGTGACAAGATACGCACATAGTCTCAGCCTGGAGGCCATAAACAAATTGGGGGGACAAGCTTCCCTTTTGGATCTTCCTACTGCAGGATTGAGAGGTAATACACACTTTCCCTTCACCGATAGGAACAATGTTCAGGTGGCTTCTCTCCTGTCAGACTTTCTGGGTAAACACGGTCTGGATCAAAATGAGAGCAAACTCGCCGCCGCCCTGGAATGA
modifications: the ALT02M1-01 nucleotide sequence encoding the amino acid sequence corresponding to the herbicide tolerant protein ALT02M1 and based on the soybean codon usage bias
B2: ALT02-01: nucleotide sequence SEQ ID NO: 21 encoding ALT02, based on soybean codon usage bias (nucleic acid)
DNA: ATGGAGACTGATAACGTGGAACTCGCCCAATCTAAGAGAAAGGTGGTGCTGGCTGAACAAGGGTCATTTTACATAGGGGGTAGGACTGTTACTGGTCCTGGCAAGTTTGATCCATCCAAACCTGTGATACCCTACAGTAACGAAGGAGCAACATTCTATATTAACCAAATGTATGTTAACTTCCAGGCCCCAGTGAGACCTAGGGGACTTCCATTGGTTTTCTGGCATGGAGGTGGCTTGACTGGTCACATCTGGGAGTCTACACCTGACGGCAGACCCGGGTTTCAAACCCTCTTCGTTCAGGATAGGCATACCGTGTACACTATTGACCAACCTGGGAGAGGAAGGGGTAACATCCCAACTTTTAACGGACCTTTCGGACAGTTGGAGGAAGAGAGTATTGTTAACACTGTGACAGGAAATTCTTCAAAGGAAGGTGCCTGGGTGAGAGATAGGCTTGGCCCTGCTCCCGGGCAATTTTTCGAGAACTCTCAGTTTCCTAGAGGCTATGAAGACAATTACTTTAAGGAGATGGGATTCAGCCCATCTATATCCAGTGATGAAATTGTTGACGCTGTTGTGAAACTCGTGACCCATATTGGTCCTTGTGTTCTGGTGACTCACTCAGCATCCGGCGTTCTTGGGATGAGAGTGGCTACACACGCAAAGAATGTTAGGGGAATTGTGGCCTATGAACCAGCTACCTCAATCTTCCCCAAGGGAAAAGTTCCAGAGATACCACCTCTCGCTGATAAGAAAAGCCAAATCTTTCCCCCATTCGAAATACAGGAGTCTTACTTTAAGAAACTTGCCAAGATTCCAATCCAATTTGTTTTCGGAGATAACATCCCCAAGAATCCAAAATCAGCATATTGGTTCCTGGACTGGTGGAGAGTGACAAGATACGCACATAGTCTCAGCCTGGAGGCCATAAACAAATTGGGGGGACAAGCTTCCCTTTTGGATCTTCCTACTGCAGGATTGAGAGGTAATACACACTTTCCCTTCACCGATAGGAACAATGTTCAGGTGGCTTCTCTCCTGTCAGACTTTCTGGGTAAACACGGTCTGGATCAAAATGAGAGCAAACTCGCCGCCGCCCTGGAATGA
modifications: the ALT02-01 nucleotide sequence encoding the amino acid sequence corresponding to the ALT02 and based on the soybean codon usage bias
B3: ALT02M2-01: nucleotide sequence SEQ ID NO: 29 encoding ALT02M2, based on soybean codon usage bias (nucleic acid)
DNA: ATGGAGACTGATAACGTGGAACTCGCCCAATCTAAGAGAAAGGTGGTGCTGGCTGAACAAGGGTCATTTTACATAGGGGGTAGGACTGTTACTGGTCCTGGCAAGTTTGATCCATCCAAACCTGTGATACCCTACAGTAACGAAGGAGCAACATTCTATATTAACCAAATGTATGTTAACTTCCAGGCCCCAGTGAGACCTAGGGGACTTCCATTGGTTTTCTGGCATGGAGGTGGCTTGACTGGTCACATCTGGGAGTCTACACCTGACGGCAGACCCGGGTTTCAAACCCTCTTCGTTCAGGATAGGCATACCGTGTACACTATTGACCAACCTGGGAGAGGAAGGGGTAACATCCCAACTTTTAACGGACCTTTCGGACAGTTGGAGGAAGAGAGTATTGTTAACACTGTGACAGGAAATGTATCAAAGGAAGGTGCCTGGGTGAGAGATAGGCTTGGCCCTGCTCCCGGGCAATTTTTCGAGAACTCTCAGTTTCCTAGAGGCTATGAAGACAATTACTTTAAGGAGATGGGATTCAGCCCATCTATATCCAGTGATGAAATTGTTGACGCTGTTGTGAAACTCGTGACCCATATTGGTCCTTGTGTTCTGGTGACTCACTCAGCATCCGGCGTTCTTGGGATGAGAGTGGCTACACACGCAAAGAATGTTAGGGGAATTGTGGCCTATGAACCAGCTACCTCAATCTTCCCCAAGGGAAAAGTTCCAGAGATACCACCTCTCGCTGATAAGAAAAGCCAAATCTTTCCCCCATTCGAAATACAGGAGTCTTACTTTAAGAAACTTGCCAAGATTCCAATCCAATTTGTTTTCGGAGATAACATCCCCAAGAATCCAAAATCAGCATATTGGTTCCTGGACTGGTGGAGAGTGACAAGATACGCACATAGTCTCAGCCTGGAGGCCATAAACAAATTGGGGGGACAAGCTTCCCTTTTGGATCTTCCTACTGCAGGATTGAGAGGTAATACACACTTTCCCTTCACCGATAGGAACAATGTTCAGGTGGCTTCTCTCCTGTCAGACTTTCTGGGTAAACACGGTCTGGATCAAAATGAGAGCAAACTCGCCGCCGCCCTGGAATGA
modifications: the ALT02M2-01 nucleotide sequence encoding the amino acid sequence corresponding to the herbicide tolerant protein ALT02M2 and based on the soybean codon usage bias
B4: ALT02M3-01: nucleotide sequence SEQ ID NO: 33 encoding ALT02M3, based on soybean codon usage bias (nucleic acid)
DNA: ATGGAGACTGATAACGTGGAACTCGCCCAATCTAAGAGAAAGGTGGTGCTGGCTGAACAAGGGTCATTTTACATAGGGGGTAGGACTGTTACTGGTCCTGGCAAGTTTGATCCATCCAAACCTGTGATACGAGCCAGTAACGAAGGAGCAACATTCTATATTAACCAAATGTATGTTAACTTCCAGGCCCCAGTGAGACCTAGGGGACTTCCATTGGTTTTCTGGCATGGAGGTGGCTTGACTGGTCACATCTGGGAGTCTACACCTGACGGCAGACCCGGGTTTCAAACCCTCTTCGTTCAGGATAGGCATACCGTGTACACTATTGACCAACCTGGGAGAGGAAGGGGTAACATCCCAACTTTTAACGGACCTTTCGGACAGTTGGAGGAAGAGAGTATTGTTAACACTGTGACAGCCAATGTATCAAAGGAACGAGCCTGGGTGAGAGATAGGCTTGGCCCTGCTCCCGGGCAATTTTTCGAGAACTCTCAGTTTCCTAGAGGCTATGAAGACAATTACTTTAAGGAGATGGGATTCAGCCCATCTATATCCAGTGATGAAATTGTTGACGCTGTTGTGAAACTCGTGACCCATATTGGTCCTTGTGTTCTGGTGACTCACTCAGCATCCGGCGTTCTTGGGATGAGAGTGGCTACACACGCAAAGAATGTTAGGGGAATTGTGGCCTATGAACCAGCTACCTCAATCTTCCCCAAGGGAAAAGTTCCAGAGATACCACCTCTCGCTGATAAGAAAAGCCAAATCTTTCCCCCATTCGAAATACAGGAGTCTTACTTTAAGAAACTTGCCAAGATTCCAATCCAATTTGTTTTCGGAGATAACATCCCCAAGAATCCAAAATCAGCATATTGGTTCCTGGACTGGTGGAGAGTGACAAGATACGCACATAGTCTCAGCCTGGAGGCCATAAACAAATTGGGGGGACAAGCTTCCCTTTTGGATCTTCCTACTGCAGGATTGAGAGGTAATACACACTTTCCCTTCACCGATAGGAACAATGTTCAGGTGGCTTCTCTCCTGTCAGACTTTCTGGGTAAACACGGTCTGGATCAAAATGAGAGCAAACTCGCCGCCGCCCTGGAATGA
modifications: the ALT02M3-01 nucleotide sequence encoding the amino acid sequence corresponding to the herbicide tolerant protein ALT02M3 and based on the soybean codon usage bias

This series relates to soybean plants. The experiment in a line: Herbicide tolerance of transgenic soybean T1 plants (spraying, damage degree). Type of series: in vivo. The settings on record: sprayed with tribenuron-methyl 144 g ai/ha, eight-fold field concentration. As for the experimental part:
The degree of damage caused by the herbicide was measured for each plant according to the leaf curl degree and the growth point damage degree 3 days after spraying (3 DAT), 7 days after spraying (7 DAT), 14 days after spraying (14 DAT) and 21 days after spraying (21 DAT): the case where the leaves are flat as untreated plants and the growth points are intact is defined as having a damage degree of 0%; the case where veins are locally browned, new leaves are malformed and plant growth is slow is defined as having a damage degree of 50%; and the case where veins are purple, until the whole plant is dead and the growth points are browned and dry is defined as having a damage degree of 100%. The soybean plants into which the ALT02M1-01 nucleotide sequence was introduced were of three strains in total (S1, S2 and S3), the soybean plants into which the ALT02M2-01 nucleotide sequence was introduced were of three strains in total (S4, S5 and S6), the soybean plants into which the ALT02M3-01 nucleotide sequence was introduced were of three strains in total (S7, S8 and S9), the soybean plants into which the ALT02-01 nucleotide sequence was introduced were of three strains in total (S10, S11 and S12), the control soybean plants were of two strains in total (S13 and S14), and the wild-type soybean plants were of one strain in total (CK1); and 10-15 plants were selected from each strain and tested.
In the case of B1, the “herbicide tolerance compared with soybean plants into which ALT02-01 was introduced” value is “significantly increased tolerance to benzenesulfonic acid” and the “herbicide tolerance imparted to transgenic soybean plants” value (“herbicide tolerance imparted” for short) is “impart transgenic soybean plants with the tolerance to benzenesulfonic acid”.
With B2, the “herbicide tolerance imparted” value is “impart transgenic soybean plants with the tolerance to benzenesulfonic acid”.
As to B3, the “herbicide tolerance compared with soybean plants into which ALT02-01 was introduced” value is reported as “significantly increased tolerance to benzenesulfonic acid” and the “herbicide tolerance imparted” value is “impart transgenic soybean plants with the tolerance to benzenesulfonic acid”.
With B4, the “herbicide tolerance compared with soybean plants into which ALT02-01 was introduced” value is recorded as “significantly increased tolerance to benzenesulfonic acid” and the “herbicide tolerance imparted” value is given as “impart transgenic soybean plants with the tolerance to benzenesulfonic acid”.
